What all share (experiment): SEC-MALS; 100 μl of purified protein injected at 12 mg/ml (high concentration); Superdex 200 10/300 GL, room temperature, 10 mM HEPES pH 7.4, 200 mM NaCl, 5 mM β-ME, 0.4 ml/min
The target of assay [1] is mutant α_(Y126F)β heterodimer of human NAD-dependent isocitrate dehydrogenase (human) (UniProt P50213).
Assay [2] has as its target αγ heterodimer of human NAD-dependent isocitrate dehydrogenase (human) (UniProt P50213).
Assay [3] concerns the target αβ heterodimer of human NAD-dependent isocitrate dehydrogenase (human) (UniProt P50213).
Assay [4] deals with mutant α_(Y126F)γ heterodimer of human NAD-dependent isocitrate dehydrogenase (human) (UniProt P50213).

Sequence of mutant α_(Y126F)β heterodimer of human NAD-dependent isocitrate dehydrogenase (P50213 whole entry, looked up, stated change not applied, one chain of several): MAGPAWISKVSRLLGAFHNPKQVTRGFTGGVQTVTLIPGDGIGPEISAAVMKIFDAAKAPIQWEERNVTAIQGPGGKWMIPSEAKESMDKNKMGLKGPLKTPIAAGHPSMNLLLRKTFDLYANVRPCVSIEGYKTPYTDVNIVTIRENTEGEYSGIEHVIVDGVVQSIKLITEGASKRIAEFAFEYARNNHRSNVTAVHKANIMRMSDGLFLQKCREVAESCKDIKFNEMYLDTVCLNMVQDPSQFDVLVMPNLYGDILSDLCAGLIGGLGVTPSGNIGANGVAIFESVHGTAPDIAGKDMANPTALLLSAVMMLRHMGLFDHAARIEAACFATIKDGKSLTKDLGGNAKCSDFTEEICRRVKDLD
Sequence of αβ heterodimer of human NAD-dependent isocitrate dehydrogenase (P50213 whole entry, looked up, one chain of several): as the sequence (P50213 whole entry, looked up, stated change not applied, one chain of several) above

Take “mutant α_(Y126F)β heterodimer of human NAD-dependent isocitrate dehydrogenase (from UniProt P50213 55-366) (complex)”: the stoichiometry N – broadly, a count of units in the complex or per binding partner – in assay [1] is 2.

In turn, “αγ heterodimer of human NAD-dependent isocitrate dehydrogenase (from UniProt P50213 28-366; P51553 40-393) (complex)” came in with a stoichiometry N in assay [2] of 2.

Turning to “αβ heterodimer of human NAD-dependent isocitrate dehydrogenase (from UniProt P50213 28-366) (complex)”, the stoichiometry N in assay [3] turned out to be 2.

“mutant α_(Y126F)γ heterodimer of human NAD-dependent isocitrate dehydrogenase (from UniProt P50213 55-366; P51553 40-393) (complex)” showed a stoichiometry N in assay [4] of 2.

Source of the values: PMC5282582.
